Reference: PMC10834429, “HRDE-2 drives small RNA specificity for the nuclear Argonaute protein HRDE-1” (Nature Communications, 2024)

What was measured:
GFP::3xFLAG::HRDE-1 = target: T1, GFP::3xFLAG::HRDE-1 (C. elegans, UniProt Q09249 1-1032); assay: co-IP; lysate of adult animals; anti-FLAG beads precipitate GFP::3xFLAG::HRDE-1, HRDE-2::2xTy1::GFP detected with anti-Ty1; wild-type, mut-2 mutant and hrde-1(HK-AA) backgrounds; band intensities by ImageJ normalized to HRDE-1 immunoprecipitated and to wild-type; details: partners not purified
T1 construct: HRDE-1/WAGO-9, germline nuclear Argonaute, C. elegans, tagged in the worm strain; Tag ends are read from the strain notation GFP::3xFLAG::HRDE-1; also called HRDE-1/WAGO-9; wild-type HRDE-1; source: C. elegans strain hrde-1(tor125[GFP::3xFLAG::hrde-1]), adult animals, in lysate; not shown: GFP, N-terminal, kept; 3xFLAG, N-terminal, kept
T1 sequence (looked up): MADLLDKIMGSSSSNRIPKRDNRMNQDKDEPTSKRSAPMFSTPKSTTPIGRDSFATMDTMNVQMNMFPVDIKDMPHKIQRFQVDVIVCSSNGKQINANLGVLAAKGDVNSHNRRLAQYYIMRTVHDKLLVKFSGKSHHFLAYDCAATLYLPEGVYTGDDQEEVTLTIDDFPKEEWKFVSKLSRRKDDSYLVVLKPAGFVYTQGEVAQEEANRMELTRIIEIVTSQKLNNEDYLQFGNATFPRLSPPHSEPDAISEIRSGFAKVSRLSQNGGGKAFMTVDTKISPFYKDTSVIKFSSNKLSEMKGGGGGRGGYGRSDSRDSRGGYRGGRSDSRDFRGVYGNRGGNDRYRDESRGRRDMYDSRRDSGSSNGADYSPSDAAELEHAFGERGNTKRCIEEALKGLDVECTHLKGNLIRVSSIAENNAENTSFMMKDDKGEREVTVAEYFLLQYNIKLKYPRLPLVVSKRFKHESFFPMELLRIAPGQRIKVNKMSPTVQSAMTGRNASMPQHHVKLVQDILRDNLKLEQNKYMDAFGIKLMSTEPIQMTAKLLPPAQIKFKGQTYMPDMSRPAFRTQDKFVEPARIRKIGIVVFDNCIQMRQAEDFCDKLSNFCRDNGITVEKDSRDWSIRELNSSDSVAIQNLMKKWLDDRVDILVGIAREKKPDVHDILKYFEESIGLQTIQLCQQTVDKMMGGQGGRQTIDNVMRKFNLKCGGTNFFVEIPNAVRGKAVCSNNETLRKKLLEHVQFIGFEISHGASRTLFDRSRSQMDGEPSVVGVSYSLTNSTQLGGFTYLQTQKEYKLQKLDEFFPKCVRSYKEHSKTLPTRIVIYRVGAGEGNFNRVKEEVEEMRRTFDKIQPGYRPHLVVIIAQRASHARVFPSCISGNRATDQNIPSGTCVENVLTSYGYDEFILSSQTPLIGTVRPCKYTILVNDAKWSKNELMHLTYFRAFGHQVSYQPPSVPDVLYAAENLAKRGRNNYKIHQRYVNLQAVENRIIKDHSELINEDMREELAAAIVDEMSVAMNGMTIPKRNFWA

[1] = target: T2, GFP::3xFLAG::HRDE-1(HK-AA) (C. elegans, UniProt Q09249 1-1032, H664A | K668A); assay: as above; details: partners not purified
T2 construct: Tag ends are read from the strain notation; Repair template is in Supplementary Data 3; source: C. elegans strain hrde-1(cmp309[HK-AA]) made in hrde-1(tor125[GFP::3xFLAG::hrde-1]), adult animals, in lysate; not shown: GFP, N-terminal, kept; 3xFLAG, N-terminal, kept
T2 sequence (looked up): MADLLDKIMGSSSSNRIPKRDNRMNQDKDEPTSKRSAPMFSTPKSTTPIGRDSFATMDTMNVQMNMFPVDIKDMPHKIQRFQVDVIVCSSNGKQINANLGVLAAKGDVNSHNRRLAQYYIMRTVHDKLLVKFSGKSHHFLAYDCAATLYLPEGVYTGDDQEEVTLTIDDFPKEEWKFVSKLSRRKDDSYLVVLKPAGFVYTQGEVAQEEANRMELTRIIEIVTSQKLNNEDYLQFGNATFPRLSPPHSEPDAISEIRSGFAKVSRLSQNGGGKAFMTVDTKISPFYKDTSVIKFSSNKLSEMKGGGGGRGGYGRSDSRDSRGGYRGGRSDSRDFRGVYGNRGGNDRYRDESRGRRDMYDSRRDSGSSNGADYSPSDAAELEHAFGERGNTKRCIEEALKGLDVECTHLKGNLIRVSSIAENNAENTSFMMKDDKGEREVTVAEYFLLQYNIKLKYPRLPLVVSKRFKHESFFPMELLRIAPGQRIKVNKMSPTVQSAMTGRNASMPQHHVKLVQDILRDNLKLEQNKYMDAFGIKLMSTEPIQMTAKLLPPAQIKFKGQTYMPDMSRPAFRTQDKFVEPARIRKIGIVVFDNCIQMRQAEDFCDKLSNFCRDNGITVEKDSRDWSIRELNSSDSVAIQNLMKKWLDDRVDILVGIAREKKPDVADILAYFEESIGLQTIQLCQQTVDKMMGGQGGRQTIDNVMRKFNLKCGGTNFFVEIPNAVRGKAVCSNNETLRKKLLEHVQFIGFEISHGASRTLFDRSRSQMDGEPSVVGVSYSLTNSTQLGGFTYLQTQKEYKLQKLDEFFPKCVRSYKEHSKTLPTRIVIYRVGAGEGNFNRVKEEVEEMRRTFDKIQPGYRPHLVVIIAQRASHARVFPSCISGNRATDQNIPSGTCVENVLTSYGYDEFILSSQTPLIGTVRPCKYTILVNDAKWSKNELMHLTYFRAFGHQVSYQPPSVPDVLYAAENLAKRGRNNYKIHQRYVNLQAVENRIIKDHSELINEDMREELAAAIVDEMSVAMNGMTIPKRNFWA

B1: HRDE-2::2xTy1::GFP (natural protein, C. elegans, UniProt Q22058 1-305, looked up)
chain: MSQNSDTFDSGLQMEVHKMAEADNSSVQQKFDAIRDYIGRKETTIILCEHDDSRKIKLTLNKQRMESSMFLTEMPDGGIQEKTKFHRNGLAVCSYNAFDEVDLPLADSYIFYGLPSNVEAFPRMLHGIEKSAHKENKIVFIDIVVSILEKIQIKVVSFELYNRKCTVPTWVAELVITYCAPIEEQQQRIEEIRRTRASVPVAISDAANGSAEMVPSNTTGSSGSPMSTAPVPAAKKEKVQYESIRQIRPNAQGRYFVPARMINMDIEMSNDEYSPDESENDENEYDYENAARYDDGYDEGHEYCQ
notes: HRDE-2 (HRDE-2/ENRI-3), C. elegans, tagged in the worm strain; Tag ends are read from the strain notation HRDE-2::2xTy1::GFP; also called HRDE-2/ENRI-3; source: C. elegans strain hrde-2/enri-3(tag1660[hrde-2/enri-3::2xTy1::GFP]), adult animals, in lysate; not shown: 2xTy1, C-terminal, kept; GFP, C-terminal, kept
- fold change of co-precipitated HRDE-2 in the mut-2 mutant against wild-type (GFP::3xFLAG::HRDE-1): ~2.18 fold
- fold change of co-precipitated HRDE-2 against wild-type HRDE-1 [1]: ~3.3 fold
